# Numbering of substitutions follows the chain as printed. Where two headings read alike, the source gives them in different places.
# B1: PKPSP3gp10: SEQ ID NO: 53: PSP3gp10 (SEQ ID NO: 8) with N-terminal peptide stretch KRKKRKKRK (SEQ ID NO: 11) (protein)
# chain: MGSKRKKRKKRKPVINTHQNIAAFLDMLAYSEGTANHPLTKNRGYDVIVTGFDGSPEIFTDYSDHPFAHGRPPKVFNRRGEKSTASGRYQQLYIFWPHYKKQLALPDFSPLSQDKLAIQLIRERGAIDDIRAGRIERAVSRCRNIWASLPGAGYGQREHSLEKLVTVWRTAGGVMA
# modifications: PKPSP3gp10
# B2: PKP2gp09: SEQ ID NO: 57: P2gp09 (SEQ ID NO: 9) with N-terminal peptide stretch KRKKRKKRK (SEQ ID NO: 11) (protein)
# chain: B1 chain with Y30V, F52L, S55K, P73A, I94L, K100R, K115R, I127L, V139I, M175P
# modifications: PKP2gp09
# B3: PSP3gp10: SEQ ID NO: 8: unmodified globular endolysin with 165 amino acid residues originating from Salmonella typhimurium phage PSP3 (protein)
# chain: MPVINTHQNIAAFLDMLAYSEGTANHPLTKNRGYDVIVTGFDGSPEIFTDYSDHPFAHGRPPKVFNRRGEKSTASGRYQQLYIFWPHYKKQLALPDFSPLSQDKLAIQLIRERGAIDDIRAGRIERAVSRCRNIWASLPGAGYGQREHSLEKLVTVWRTAGGVMA
# modifications: PSP3gp10
# B4: P2gp09: SEQ ID NO: 9: unmodified globular endolysin of 165 amino acid residues originating from Escherichia coli phage P2 (protein)
# chain: B3 chain with Y19V, F41L, S44K, P62A, I83L, K89R, K104R, I116L, V128I, M164P
# modifications: P2gp09
# Legend:
# P. aeruginosa Br667 [1] = format: cell-based, Pseudomonas aeruginosa; conditions: 0.5 mM EDTA, no endolysin, 30 minutes
# Escherichia coli WK6 [2] = format: cell-based; conditions: 0.5 mM EDTA, no endolysin, 30 minutes
# P. aeruginosa Br667 [3] = experiment: Antibacterial activity of PSP3gp10 and PKPSP3gp10 with and without EDTA (30 minutes, colony count); format: cell-based, Pseudomonas aeruginosa
# P. putida G1 [4] = experiment: Antibacterial activity of P2gp09 and PKP2gp09 with and without EDTA (30 minutes, colony count); format: cell-based, Pseudomonas putida; conditions: for relative inactivation in logarithmic units (log10N0/Ni): 30 minutes
# Escherichia coli WK6 [5] = experiment: Antibacterial activity of PSP3gp10 and PKPSP3gp10 with and without EDTA (30 minutes, colony count); format: cell-based
# Description: (§1) To determine the anti-Gram-negative spectrum of the PKPSP3gp10 endolysin according to SEQ ID NO: 53, a combination of 1.315 μM PKPSP3gp10 endolysin and 0.5 mM EDTA was tested on the clinical P. aeruginosa strains PAO1p and Br667, Escherichia coli WK6, and Salmonella typhimurium (see Table 5). Exponential growing bacterial cells (OD600 nm of 0.6) were 100-fold diluted to a final density of about 10^6/ml of each strain were incubated for 30 minutes at room temperature without shaking with unmodified endolysin […] (SEQ ID NO: 8) and modified endolysin PKPSP3gp10 (SEQ ID NO: 53) each in combination without and with 0.5 mM EDTA. […] As a control each strain was also incubated for 30 minutes with 0.5 mM EDTA (in same buffer as outlined above) but no endolysin.
# (§2) After incubation cell suspensions were diluted three times (respectively 10^5-10^4-10^3 cells/ml) and 100 μl of each dilution was plated out on LB-medium.
# [6] = test system: Salmonella typhimurium LT2; experiment: as above; format: cell-based
# Description: as §1, §2
# P. putida G1 [7] = format: cell-based, Pseudomonas putida; conditions: 0.5 mM EDTA, no endolysin, 30 minutes
# [8] = test system: Pseudomonas aeruginosa PAO1p cells; experiment: Effect of different EDTA and endolysin concentrations on antibacterial activity of OBPgpLYS and PKOBPgpLYS; format: cell-based; conditions: no endolysin
# Description: To determine the influence of EDTA on the antibacterial activity of unmodified and modified endolysins the antibacterial activity of the unmodified OBPgpLYS endolysin (SEQ ID NO: 7) and the PKOBPgpLYS endolysin (SEQ ID NO: 61) was tested on Pseudomonas aeruginosa PAO1p cells ([…] et al. J Clin Microbiol., 41(3):1192-1202 (2003)) using different concentrations of EDTA and endolysins. Exponential growing bacterial cells (OD600 nm of 0.6) were 100-fold diluted to a final density of about 10^6/ml and incubated for 30 minutes at room temperature without shaking with unmodified endolysin OBPgpLYS (SEQ ID NO: 7) and modified endolysin PKOBPgpLYS (SEQ ID NO: 61). […] Thereby, the following different EDTA concentrations were used: 0 mM, 0.05 mM, 0.5 mM and 10 mM. […] After incubation cell suspensions were diluted three times (respectively 10^5-10^4-10^3 cells/ml) and 100 μl of each dilution was plated out on LB-medium. […] All samples were replicated in threefold. Averages+/-standard deviations are represented.
# Escherichia coli WK6 [9] = experiment: Antibacterial activity of P2gp09 and PKP2gp09 with and without EDTA (30 minutes, colony count); format: cell-based; conditions: for relative inactivation in logarithmic units (log10N0/Ni): 30 minutes
# Description: To determine the anti-Gram-negative spectrum of the PK2gp09 endolysin according to SEQ ID NO: 57, a combination of 1.315 μM PK2gp09 endolysin and 0,5 mM EDTA was tested on the clinical P. aeruginosa strains PAO1p and Br667 and on Escherichia coli WK6 (see Table 9). Exponential growing bacterial cells (OD600 nm of 0.6) were 100-fold diluted to a final density of about 10^6/ml of each strain was incubated for 30 minutes at room temperature without shaking with unmodified endolysin P2gp09 (SEQ ID NO: 9) and modified endolysin PKP2gp09 (SEQ ID NO: 57) each in combination without and with 0.5 mM EDTA. […] As a control each strain was also incubated for 30 minutes with 0.5 mM EDTA (in same buffer as outlined above) but no endolysin. After incubation cell suspensions were diluted three times (respectively 10^5-10^4-10^3 cells/ml) and 100 μl of each dilution was plated out on LB-medium.
# P. aeruginosa Br667 [10] = experiment: as above; format: cell-based, Pseudomonas aeruginosa; conditions: for relative inactivation in logarithmic units (log10N0/Ni): 30 minutes
# [11] = test system: Salmonella typhimurium LT2; format: cell-based; conditions: 0.5 mM EDTA, no endolysin, 30 minutes
# [12] = test system: Burkholderia pseudomallei; format: cell-based; conditions: for relative inactivation in logarithmic units (log10N0/Ni): 30 minutes
# [13] = 1.315 μM endolysin + 0.5 mM EDTA
Molecule,relative inactivation in logarithmic units (log10N0/Ni) (P. aeruginosa Br667 [3]; [13]),"relative inactivation in logarithmic units (log10N0/Ni) (P. aeruginosa Br667 [3]; 1.315 μM endolysin, no EDTA)",relative inactivation in logarithmic units (log10N0/Ni) (Escherichia coli WK6 [5]; [13]),"relative inactivation in logarithmic units (log10N0/Ni) (Escherichia coli WK6 [5]; 1.315 μM endolysin, no EDTA)","relative inactivation in logarithmic units (log10N0/Ni) [6, 13]","relative inactivation in logarithmic units (log10N0/Ni) ([6]; 1.315 μM endolysin, no EDTA)","relative inactivation in logarithmic units (log10N0/Ni) [12, 13]","relative inactivation in logarithmic units (log10N0/Ni) ([12]; 1.315 μM endolysin, no EDTA)",relative inactivation in logarithmic units (log10N0/Ni) (P. putida G1 [4]; [13]),"relative inactivation in logarithmic units (log10N0/Ni) (P. putida G1 [4]; 1.315 μM endolysin, no EDTA)",relative inactivation in logarithmic units (log10N0/Ni) (Escherichia coli WK6 [9]; [13]),"relative inactivation in logarithmic units (log10N0/Ni) (Escherichia coli WK6 [9]; 1.315 μM endolysin, no EDTA)",relative inactivation in logarithmic units (log10N0/Ni) (P. aeruginosa Br667 [10]; [13]),"relative inactivation in logarithmic units (log10N0/Ni) (P. aeruginosa Br667 [10]; 1.315 μM endolysin, no EDTA)",further results
"O=C([O-])CN(CCN(CC(=O)[O-])CC(=O)O)CC(=O)O.[Na+].[Na+] [EDTA, reference compound]",–,–,–,–,–,–,–,–,–,–,–,–,–,–,"relative inactivation in logarithmic units (log10N0/Ni) (P. aeruginosa Br667 [1]): 0.031 +/− 0.023 logarithmic units; relative inactivation in logarithmic units (log10N0/Ni) (Escherichia coli WK6 [2]): 0.592 +/− 0.113 logarithmic units; relative inactivation in logarithmic units (log10N0/Ni) (P. aeruginosa Br667 [3]; 0.5 mM EDTA, no endolysin): 0.223 +/− 0.038 logarithmic units; relative inactivation in logarithmic units (log10N0/Ni) (P. putida G1 [4]; 0.5 mM EDTA, no endolysin): 0.072 logarithmic units; relative inactivation in logarithmic units (log10N0/Ni) (Escherichia coli WK6 [5]; 0.5 mM EDTA, no endolysin): 0.393 +/− 0.035 logarithmic units; relative inactivation in logarithmic units (log10N0/Ni) ([6]; 0.5 mM EDTA, no endolysin): 0.104 +/− 0.049 logarithmic units; relative inactivation in logarithmic units (log10N0/Ni) (P. putida G1 [7]): 0.412 +/− 0.055 logarithmic units; relative inactivation in logarithmic units (log10N0/Ni) ([8]; 0.05 mM EDTA-Na2, 30 minutes): 0.028 +/− 0.008 log units; relative inactivation in logarithmic units (log10N0/Ni) ([8]; 0.5 mM EDTA-Na2, 30 minutes): 0.130 +/− 0.023 log units; relative inactivation in logarithmic units (log10N0/Ni) ([8]; 10 mM EDTA-Na2, 30 minutes): 1.827 +/− 0.052 log units; relative inactivation in logarithmic units (log10N0/Ni) (Escherichia coli WK6 [9]; 0.5 mM EDTA, no endolysin): 0.153 logarithmic units; relative inactivation in logarithmic units (log10N0/Ni) (P. aeruginosa Br667 [10]; 0.5 mM EDTA, no endolysin): 0.003 logarithmic units; relative inactivation in logarithmic units (log10N0/Ni) [11]: 0.054 +/− 0.048 logarithmic units"
B1,0.891 +/− 0.118 logarithmic units,0.353 +/− 0.086 logarithmic units,0.584 +/− 0.024 logarithmic units,0.205 +/− 0.088 logarithmic units,0.850 +/− 0.032 logarithmic units,0.327 +/− 0.057 logarithmic units,–,–,–,–,–,–,–,–,–
B2,–,–,–,–,–,–,4.255 +/− 0.001 logarithmic units,1.163 +/− 0.073 logarithmic units,">4,386 logarithmic units",1.014 +/− 0.139 logarithmic units,1.545 +/− 0.102 logarithmic units,1.104 +/− 0.039 logarithmic units,0.952 +/− 0.213 logarithmic units,0.300 +/− 0.062 logarithmic units,"Δ, difference of activity between P2gp09 and PKP2gp09 samples ([12]; 1.315 μM + 0.5 mM EDTA): 0.365 logarithmic units; Δ, difference of activity between P2gp09 and PKP2gp09 samples ([12]; 1.315 μM, no EDTA): 0.394 logarithmic units; Δ, difference of activity between P2gp09 and PKP2gp09 samples (P. putida G1 [4]; 1.315 μM + 0.5 mM EDTA): >0.467 logarithmic units; Δ, difference of activity between P2gp09 and PKP2gp09 samples (P. putida G1 [4]; 1.315 μM, no EDTA): 0.595 logarithmic units; Δ, difference of activity between P2gp09 and PKP2gp09 samples (Escherichia coli WK6 [9]; 1.315 μM + 0.5 mM EDTA): 0.749 logarithmic units; Δ, difference of activity between P2gp09 and PKP2gp09 samples (Escherichia coli WK6 [9]; 1.315 μM, no EDTA): 0.353 logarithmic units; Δ, difference of activity between P2gp09 and PKP2gp09 samples (P. aeruginosa Br667 [10]; 1.315 μM + 0.5 mM EDTA): 0.370 logarithmic units; Δ, difference of activity between P2gp09 and PKP2gp09 samples (P. aeruginosa Br667 [10]; 1.315 μM, no EDTA): 0.054 logarithmic units"
B3,0.571 +/− 0.035 logarithmic units,0.375 +/− 0.056 logarithmic units,0.387 +/− 0.014 logarithmic units,0.190 +/− 0.029 logarithmic units,0.690 +/− 0.036 logarithmic units,0.283 +/− 0.038 logarithmic units,–,–,–,–,–,–,–,–,–
B4,–,–,–,–,–,–,3.8909 logarithmic units,0.769 logarithmic units,3.919 logarithmic units,0.419 logarithmic units,0.784 logarithmic units,0.751 logarithmic units,0.582 logarithmic units,0.246 logarithmic units,–
